Measured values from US20250154278A1 (JANUX THERAPEUTICS, published 2025).

T1: Human TROP2 full length, on tumor cells (HCT116, MDAMB231, NCI-H292) (human, UniProt P09758 31-323)
T1 sequence: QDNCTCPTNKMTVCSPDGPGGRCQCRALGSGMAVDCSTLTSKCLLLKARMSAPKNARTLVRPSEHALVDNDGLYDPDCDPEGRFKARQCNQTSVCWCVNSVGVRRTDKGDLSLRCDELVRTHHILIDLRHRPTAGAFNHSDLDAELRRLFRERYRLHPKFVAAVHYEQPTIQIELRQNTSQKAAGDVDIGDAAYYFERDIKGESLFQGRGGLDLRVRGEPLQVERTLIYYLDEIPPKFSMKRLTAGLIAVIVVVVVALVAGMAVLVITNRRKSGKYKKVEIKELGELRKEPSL

T2: Cyno CD3 (Antigen was biotinylated for capture on neutravidin plates; the site of biotin and any tag are not stated.)
T2 construct: also called cynomolgus monkey CD3
T2 chain: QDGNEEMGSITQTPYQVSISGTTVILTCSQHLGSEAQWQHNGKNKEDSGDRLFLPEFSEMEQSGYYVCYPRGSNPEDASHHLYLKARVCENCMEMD


Experiments:
[1] = target: T1, Human TROP2 full length, on tumor cells …; test: cell-based or functional assay
[2] = target: T3, human CD3 epsilon, biotinylated (human, UniProt P07766 23-126, limits assumed, biotinylated (site not stated)); test: BLI, CD3e-biotin on sensor (summary)
T3 construct: Printed in places as CD36, CD38, CD3c or CD3&; also called CD3e-bio; human CD3e-biotin
T3 sequence (P07766 23-126 limits assumed): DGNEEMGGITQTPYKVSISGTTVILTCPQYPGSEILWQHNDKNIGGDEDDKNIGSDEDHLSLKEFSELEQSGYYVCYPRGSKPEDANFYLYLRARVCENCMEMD

[3] = target: T3, human CD3 epsilon, biotinylated; test: BLI, CD3e-biotin on sensor, 50 nM TCE
Experimental: The wild-type (non-mutated) and alanine mutated TCEs were evaluated for their ability to bind CD36 or TROP2 via kinetic binding measurements using biolayer interferometry (BLI). […] The TCEs diluted in buffer were then associated onto the antigen loaded biosensors. Sensors were then transferred to buffer where the TCEs were then dissociated from the sensors. Association and dissociation rates were measured in real time using an Octet® instrument.

[4] = target: T1, Human TROP2 full length, on tumor cells …; test: cell-based or functional assay; remark: listed apart in the source
Cyno CD3 = target: T2, Cyno CD3; test: Cyno CD3 binding ELISA

Binder	CD3 t1/2 [2] [min]	Kd [2] [nM]	Kd [3] [nM]	CD3 Octet response [2]	Response [3]	TCE Cytotoxicity EC50, HCT116 + CD8+ T cells [1] [nM]	TCE Cytotoxicity EC50, MDAMB231 + CD8+ T cells [1] [nM]	other results
TCE-1 (TROP2 Fab x SP34.185 scFv, non-mutated, scFv on the Fab HC) (bispecific antibody) light: DIQLTQSPSSLSASVGDRVSITCKASQDVSIAVAWYQQKPGKAPKLLIYSASYRYTGVPDRFSGSGSGTDFTLTISSLQPEDFAVYYCQQHYITPLTFGAGTKVEIKRTVAAPSVFIFPPSDEQLKSGTASVVCLLNNFYPREAKVQWKVDNALQSGNSQESVTEQDSKDSTYSLSSTLTLSKADYEKHKVYACEVTHQGLSSPVTKSFNRGEC heavy: not shown						0.0286	0.012	TCE Cytotoxicity EC50, H292 + CD8+ T cells [1]: 0.0013 nM
TCE-25 (anti-CD3 scFv V231A, anti-TROP2 wt) (bispecific antibody) light: DIQLTQSPSSLSASVGDRVSITCKASQDVSIAVAWYQQKPGKAPKLLIYSASYRYTGVPDRFSGSGSGTDFTLTISSLQPEDFAVYYCQQHYITPLTFGAGTKVEIKRTVAAPSVFIFPPSDEQLKSGTASVVCLLNNFYPREAKVQWKVDNALQSGNSQESVTEQDSKDSTYSLSSTLTLSKADYEKHKVYACEVTHQGLSSPVTKSFNRGEC heavy: not shown	2.96	6.26	6.26					
TCE-29 (anti-CD3 scFv S235A, anti-TROP2 wt) (bispecific antibody) light: DIQLTQSPSSLSASVGDRVSITCKASQDVSIAVAWYQQKPGKAPKLLIYSASYRYTGVPDRFSGSGSGTDFTLTISSLQPEDFAVYYCQQHYITPLTFGAGTKVEIKRTVAAPSVFIFPPSDEQLKSGTASVVCLLNNFYPREAKVQWKVDNALQSGNSQESVTEQDSKDSTYSLSSTLTLSKADYEKHKVYACEVTHQGLSSPVTKSFNRGEC heavy: not shown	3.64	3.41	3.41	0.68	0.682			
TCE-27 (anti-CD3 scFv W233A, anti-TROP2 wt) (bispecific antibody) light: DIQLTQSPSSLSASVGDRVSITCKASQDVSIAVAWYQQKPGKAPKLLIYSASYRYTGVPDRFSGSGSGTDFTLTISSLQPEDFAVYYCQQHYITPLTFGAGTKVEIKRTVAAPSVFIFPPSDEQLKSGTASVVCLLNNFYPREAKVQWKVDNALQSGNSQESVTEQDSKDSTYSLSSTLTLSKADYEKHKVYACEVTHQGLSSPVTKSFNRGEC heavy: not shown	6.45	12.3	12.3		0.414			H292 Cytotox EC50 [4]: > 1 nM
TCE-42 (anti-CD3 scFv with N30Q, I109V, G172A, V231A; anti-TROP2 HC F108A) (bispecific antibody) light: DIQLTQSPSSLSASVGDRVSITCKASQDVSIAVAWYQQKPGKAPKLLIYSASYRYTGVPDRFSGSGSGTDFTLTISSLQPEDFAVYYCQQHYITPLTFGAGTKVEIKRTVAAPSVFIFPPSDEQLKSGTASVVCLLNNFYPREAKVQWKVDNALQSGNSQESVTEQDSKDSTYSLSSTLTLSKADYEKHKVYACEVTHQGLSSPVTKSFNRGEC heavy: not shown								EC50 (Cyno CD3): 0.354 nM
TCE-22 (anti-CD3 scFv Y111A, anti-TROP2 wt) (bispecific antibody) light: DIQLTQSPSSLSASVGDRVSITCKASQDVSIAVAWYQQKPGKAPKLLIYSASYRYTGVPDRFSGSGSGTDFTLTISSLQPEDFAVYYCQQHYITPLTFGAGTKVEIKRTVAAPSVFIFPPSDEQLKSGTASVVCLLNNFYPREAKVQWKVDNALQSGNSQESVTEQDSKDSTYSLSSTLTLSKADYEKHKVYACEVTHQGLSSPVTKSFNRGEC heavy: not shown					-0.0009			
TCE-8 (TROP2 Fab HC D109A TCE, scFv on the Fab HC) (bispecific antibody) light: DIQLTQSPSSLSASVGDRVSITCKASQDVSIAVAWYQQKPGKAPKLLIYSASYRYTGVPDRFSGSGSGTDFTLTISSLQPEDFAVYYCQQHYITPLTFGAGTKVEIKRTVAAPSVFIFPPSDEQLKSGTASVVCLLNNFYPREAKVQWKVDNALQSGNSQESVTEQDSKDSTYSLSSTLTLSKADYEKHKVYACEVTHQGLSSPVTKSFNRGEC heavy: not shown						0.083	0.026	TCE Cytotoxicity EC50, H292 + CD8+ T cells [1]: 0.004 nM
TCE-28 (anti-CD3 scFv Y234A, anti-TROP2 wt) (bispecific antibody) light: DIQLTQSPSSLSASVGDRVSITCKASQDVSIAVAWYQQKPGKAPKLLIYSASYRYTGVPDRFSGSGSGTDFTLTISSLQPEDFAVYYCQQHYITPLTFGAGTKVEIKRTVAAPSVFIFPPSDEQLKSGTASVVCLLNNFYPREAKVQWKVDNALQSGNSQESVTEQDSKDSTYSLSSTLTLSKADYEKHKVYACEVTHQGLSSPVTKSFNRGEC heavy: not shown	1.66	11.1	11.1	0.67	0.674			
TCE-6 (TROP2 Fab HC R98A TCE, scFv on the Fab HC) (bispecific antibody) light: DIQLTQSPSSLSASVGDRVSITCKASQDVSIAVAWYQQKPGKAPKLLIYSASYRYTGVPDRFSGSGSGTDFTLTISSLQPEDFAVYYCQQHYITPLTFGAGTKVEIKRTVAAPSVFIFPPSDEQLKSGTASVVCLLNNFYPREAKVQWKVDNALQSGNSQESVTEQDSKDSTYSLSSTLTLSKADYEKHKVYACEVTHQGLSSPVTKSFNRGEC heavy: not shown						0.143	0.0772	TCE Cytotoxicity EC50, H292 + CD8+ T cells [1]: 0.0063 nM
TCE-26 (anti-CD3 scFv L232A, anti-TROP2 wt) (bispecific antibody) light: DIQLTQSPSSLSASVGDRVSITCKASQDVSIAVAWYQQKPGKAPKLLIYSASYRYTGVPDRFSGSGSGTDFTLTISSLQPEDFAVYYCQQHYITPLTFGAGTKVEIKRTVAAPSVFIFPPSDEQLKSGTASVVCLLNNFYPREAKVQWKVDNALQSGNSQESVTEQDSKDSTYSLSSTLTLSKADYEKHKVYACEVTHQGLSSPVTKSFNRGEC heavy: not shown	2.64	8.39	8.39	0.66	0.663			
TCE-2 (TROP2 Fab x SP34.185 scFv, non-mutated, scFv on the Fab LC) (bispecific antibody) light: not shown heavy: QVQLQQSGSELKKPGASVKVSCKASGYTFTNYGMNWVKQAPGQGLKWMGWINTYTGEPTYTDDFKGRFAFSLDTSVSTAYLQISSLKADDTAVYFCARGGFGSSYWYFDVWGQGSLVTVSSASTKGPSVFPLAPSSKSTSGGTAALGCLVKDYFPEPVTVSWNSGALTSGVHTFPAVLQSSGLYSLSSVVTVPSSSLGTQTYICNVNHKPSNTKVDKKVEPKSC						0.0016	0.0012	
TCE-3 (TROP2 Fab HC R98A TCE, scFv on the Fab LC) (bispecific antibody) light: not shown heavy: QVQLQQSGSELKKPGASVKVSCKASGYTFTNYGMNWVKQAPGQGLKWMGWINTYTGEPTYTDDFKGRFAFSLDTSVSTAYLQISSLKADDTAVYFCAAGGFGSSYWYFDVWGQGSLVTVSSASTKGPSVFPLAPSSKSTSGGTAALGCLVKDYFPEPVTVSWNSGALTSGVHTFPAVLQSSGLYSLSSVVTVPSSSLGTQTYICNVNHKPSNTKVDKKVEPKSC						0.022	0.0077	TCE Cytotoxicity EC50, H292 + CD8+ T cells [1]: 0.0004 nM
TCE-5 (TROP2 Fab HC D109A TCE, scFv on the Fab LC) (bispecific antibody) light: not shown heavy: QVQLQQSGSELKKPGASVKVSCKASGYTFTNYGMNWVKQAPGQGLKWMGWINTYTGEPTYTDDFKGRFAFSLDTSVSTAYLQISSLKADDTAVYFCARGGFGSSYWYFAVWGQGSLVTVSSASTKGPSVFPLAPSSKSTSGGTAALGCLVKDYFPEPVTVSWNSGALTSGVHTFPAVLQSSGLYSLSSVVTVPSSSLGTQTYICNVNHKPSNTKVDKKVEPKSC						0.0058	0.0026	TCE Cytotoxicity EC50, H292 + CD8+ T cells [1]: 0.0002 nM

Continued, in another order:

CD3 t1/2 [2] [min]	Kd [2] [nM]	Kd [3] [nM]	CD3 Octet response [2]	Response [3]	Binder	TCE Cytotoxicity EC50, HCT116 + CD8+ T cells [1] [nM]	TCE Cytotoxicity EC50, MDAMB231 + CD8+ T cells [1] [nM]	other results
	31	31	0.07	0.0683	TCE-32 (anti-CD3 scFv W238A, anti-TROP2 wt) (bispecific antibody) light: DIQLTQSPSSLSASVGDRVSITCKASQDVSIAVAWYQQKPGKAPKLLIYSASYRYTGVPDRFSGSGSGTDFTLTISSLQPEDFAVYYCQQHYITPLTFGAGTKVEIKRTVAAPSVFIFPPSDEQLKSGTASVVCLLNNFYPREAKVQWKVDNALQSGNSQESVTEQDSKDSTYSLSSTLTLSKADYEKHKVYACEVTHQGLSSPVTKSFNRGEC heavy: not shown			H292 Cytotox EC50 [4]: > 1 nM
2.67	6.51	6.51	0.73	0.728	TCE-31 (anti-CD3 scFv R237A, anti-TROP2 wt) (bispecific antibody) light: DIQLTQSPSSLSASVGDRVSITCKASQDVSIAVAWYQQKPGKAPKLLIYSASYRYTGVPDRFSGSGSGTDFTLTISSLQPEDFAVYYCQQHYITPLTFGAGTKVEIKRTVAAPSVFIFPPSDEQLKSGTASVVCLLNNFYPREAKVQWKVDNALQSGNSQESVTEQDSKDSTYSLSSTLTLSKADYEKHKVYACEVTHQGLSSPVTKSFNRGEC heavy: not shown			
2.45			0.65	0.65	TCE-30 (anti-CD3 scFv N236A, anti-TROP2 wt) (bispecific antibody) light: DIQLTQSPSSLSASVGDRVSITCKASQDVSIAVAWYQQKPGKAPKLLIYSASYRYTGVPDRFSGSGSGTDFTLTISSLQPEDFAVYYCQQHYITPLTFGAGTKVEIKRTVAAPSVFIFPPSDEQLKSGTASVVCLLNNFYPREAKVQWKVDNALQSGNSQESVTEQDSKDSTYSLSSTLTLSKADYEKHKVYACEVTHQGLSSPVTKSFNRGEC heavy: not shown			
4.26			0.74	0.742	TCE-33 (anti-CD3 scFv V239A, anti-TROP2 wt) (bispecific antibody) light: DIQLTQSPSSLSASVGDRVSITCKASQDVSIAVAWYQQKPGKAPKLLIYSASYRYTGVPDRFSGSGSGTDFTLTISSLQPEDFAVYYCQQHYITPLTFGAGTKVEIKRTVAAPSVFIFPPSDEQLKSGTASVVCLLNNFYPREAKVQWKVDNALQSGNSQESVTEQDSKDSTYSLSSTLTLSKADYEKHKVYACEVTHQGLSSPVTKSFNRGEC heavy: not shown			
